What all share (test): SPR; CBP-FLAG immobilised by amine coupling on a CM5 chip (300-400 RU, 10 mM sodium acetate pH 4.5); serial dilutions of mouse chemokine flowed in triplicate for 3 min, 10 min dissociation; 25°C; HBS-EP buffer (20 mM HEPES, 150 mM NaCl, 3.4 mM EDTA, 0.005% Polysorbate 20, pH 7.4); Biacore X100; global fit with a 1:1 binding model
A general note: In SPR one partner is held on a chip, and binding of the other changes the refractive index at the surface.

The target in assay [1] is PVNZ112.6-CBP (Parapoxvirus of red deer in New Zealand (PVNZ), strain RD86).
Assay [2] deals with PVNZ112.0-CBP (Parapoxvirus of red deer in New Zealand (PVNZ), strain RD86).
The target in assay [3] is PVNZ112.3-CBP (Parapoxvirus of red deer in New Zealand (PVNZ), strain RD86).

A word on the Kd: it is the equilibrium constant for the complex coming apart. Low values mean tighter binding, high ones weaker binding. As a reminder, the koff is a measure of how fast the partners let go of each other. The kon is the rate constant with which the complex forms. A higher kon goes with faster complex formation. In assay [1], “recombinant mouse CCL2 (from UniProt P10148 24-148) (ligand)” displayed a Kd of 0.03 nM, an off-rate constant (koff) of 0.00037 s⁻¹ and a kon of 1.18e+07 M⁻¹ s⁻¹.
On to “recombinant mouse CCL21 (from UniProt P84444 24-133) (ligand)”, for which, in assay [2], the Kd is 12.9 nM, the koff worked out at 0.00682 s⁻¹ and the kon was found to be 530000 M⁻¹ s⁻¹. Also, in assay [3], the Kd came to 17.9 nM, the koff stood at 0.00251 s⁻¹ and the kon came out at 140000 M⁻¹ s⁻¹. In addition, in assay [1], the Kd came to 0.52 nM, the koff was determined as 0.0103 s⁻¹ and the kon is 1.95e+07 M⁻¹ s⁻¹.

B1: recombinant mouse CXCL1 (ligand)
chain: APIANELRCQCLQTMAGIHLKNIQSLKVLPSGPHCTQTEVIATLKNGREACLDPEAPLVQKIVQKMLKGVPK
Take B1: in assay [3], the dissociation constant Kd was 0.66 nM, the off-rate (koff) came to 0.00169 s⁻¹ and the kon came out at 2.54e+06 M⁻¹ s⁻¹.

B2: recombinant mouse CCL3 (ligand)
chain: APYGADTPTACCFSYSRKIPRQFIVDYFETSSLCSQPGVIFLTKRNRQICADSKETWVQEYITDLELNA
In assay [1], B2 came in with a Kd of 2.51 nM, a koff of 0.0358 s⁻¹ and a kon of 1.42e+07 M⁻¹ s⁻¹.

B3: recombinant mouse CXCL4 (ligand)
chain: VTSAGPEESDGDLSCVCVKTISSGIHLKHITSLEVIKAGRHCAVPQLIATLKNGRKICLDRQAPLYKKVIKKILES
Consider B3, for which, in assay [2], the dissociation constant Kd worked out at 25.9 nM, the koff turned out to be 0.0044 s⁻¹ and the kon is 170000 M⁻¹ s⁻¹. Further, in assay [3], the Kd came to 0.97 nM, the koff stood at 0.00126 s⁻¹ and the on-rate (kon) is 1.29e+06 M⁻¹ s⁻¹. Moreover, in assay [1], the Kd amounted to 0.59 nM, the koff came to 0.011 s⁻¹ and the kon is 1.85e+07 M⁻¹ s⁻¹.

B4: recombinant mouse XCL1 (ligand)
chain: VGTEVLEESSCVNLQTQRLPVQKIKTYIIWEGAMRAVIFVTKRGLKICADPEAKWVKAAIKTVDGRASTRKNMAETVPTGAQRSTSTAITLTG
In assay [2], B4 registered a dissociation constant Kd of 30.8 nM, a koff of 0.00203 s⁻¹ and a kon of 60000 M⁻¹ s⁻¹.

B5: recombinant mouse CCL19 (ligand)
chain: GANDAEDCCLSVTQRPIPGNIVKAFRYLLNEDGCRVPAVVFTTLRGYQLCAPPDQPWVDRIIRRLKKSSAKNKGNSTRRSPVS
Consider B5, for which, in assay [3], the Kd is 15.8 nM, the koff was found to be 0.00158 s⁻¹ and the kon was determined as 10000 M⁻¹ s⁻¹. Also, in assay [1], the equilibrium dissociation constant (Kd) was found to be 0.13 nM, the koff came to 0.00132 s⁻¹ and the on-rate constant (kon) was 1e+07 M⁻¹ s⁻¹.

B6: recombinant mouse CXCL2 (ligand)
chain: AVVASELRCQCLKTLPRVDFKNIQSLSVTPPGPHCAQTEVIATLKGGQKVCLDPEAPLVQKIIQKILNKGKAN
In assay [3], B6 showed a Kd of 0.48 nM, a koff of 0.00087 s⁻¹ and an association rate constant (kon) of 1.79e+06 M⁻¹ s⁻¹.

B7: recombinant mouse CXCL10 (ligand)
chain: IPLARTVRCNCIHIDDGPVRMRAIGKLEIIPASLSCPRVEIIATMKKNDEQRCLNPESKTIKNLMKAFSQKRSKRAP
In assay [2], B7 yielded a Kd of 7.29 nM, an off-rate (koff) of 0.00708 s⁻¹ and a kon of 970000 M⁻¹ s⁻¹. In assay [3], this molecule gave a Kd of 82.5 nM, a koff of 0.0198 s⁻¹ and an on-rate (kon) of 240000 M⁻¹ s⁻¹. Further, in assay [1], the Kd was determined as 10.4 nM, the koff amounted to 0.00146 s⁻¹ and the kon was found to be 140000 M⁻¹ s⁻¹.

B8: recombinant mouse CCL22 (ligand)
chain: GPYGANVEDSICCQDYIRHPLPSRLVKEFFWTSKSCRKPGVVLITVKNRDICADPRQVWVKKLLHKLS
In assay [1], B8 returned a Kd of 0.02 nM, an off-rate (koff) of 0.00047 s⁻¹ and an on-rate constant (kon) of 2.17e+07 M⁻¹ s⁻¹.

These data come from PMC6603201.
